The record followed here is PMC4931181 (The EMBO Journal, 2016).

For data set [1], the target named is Xenopus laevis histone H2B (28–126) (Xenopus laevis, UniProt P02281 28-126). The data set can be described thus: crystal structure.
The data set “native MS” concerns the molecule itself. Nature of the data set: native MS.

Numbering of substitutions follows the chain as printed. Values joined by “and” are separate entries in the source; they are usually repeats but may differ in a detail not shown here. Equal entries are not always repeated.

B1: Saccharomyces cerevisiae Nap1 core domain (residues 75–365) (domain or fragment)
chain: GSLVGQDSGYVGGLPKNVKEKLLSLKTLQSELFEVEKEFQVEMFELENKFLQKYKPIWEQRSRIISGQEQPKPEQIAKGQEIVESLNETELLVDEEEKAQNDSEEEQVKGIPSFWLTALENLPIVCDTITDRDAEVLEYLQDIGLEYLTDGRPGFKLLFRFDSSANPFFTNDILCKTYFYQKELGYSGDFIYDHAEGCEISWKDNAHNVTVDLEMRKQRNKTTKQVRTIEKITPIESFFNFFDPPKIQNEDQDEELEEDLEERLALDYSIGEQLKDKLIPRAVDWFTGAAL
In general, stoichiometry N refers to the number of molecules, sites or subunits per partner or assembly. With B1, in data set [1], the binding result was “binds”. In addition, the “stoichiometry N” value in “native MS” is 2 and 4 and 6.

B2: yNap1cΔ (core 75–365 with in-frame deletion of the β5–β6 region, Δ284–308) (domain or fragment)
chain: GSLVGQDSGYVGGLPKNVKEKLLSLKTLQSELFEVEKEFQVEMFELENKFLQKYKPIWEQRSRIISGQEQPKPEQIAKGQEIVESLNETELLVDEEEKAQNDSEEEQVKGIPSFWLTALENLPIVCDTITDRDAEVLEYLQDIGLEYLTDGRPGFKLLFRFDSSANPFFTNDILCKTYFYQKELGYSGDFIYDHAEGCEISWKDNAHNVIESFFNFFDPPKIQNEDQDEELEEDLEERLALDYSIGEQLKDKLIPRAVDWFTGAAL
As to B2, the binding result in the data set “native MS” is “binds”.

B3: yNap1cΔ_G225D (domain or fragment)
chain: B2 chain with G151D
For B3, in the data set “native MS”, the “stoichiometry N” value was 2.

B4: Saccharomyces cerevisiae Nap1 full-length (residues 1–417) (natural protein)
chain: MSDPIRTKPKSSMQIDNAPTPHNTPASVLNPSYLKNGNPVRAQAQEQDDKIGTINEEDILANQPLLLQSIQDRLGSLVGQDSGYVGGLPKNVKEKLLSLKTLQSELFEVEKEFQVEMFELENKFLQKYKPIWEQRSRIISGQEQPKPEQIAKGQEIVESLNETELLVDEEEKAQNDSEEEQVKGIPSFWLTALENLPIVCDTITDRDAEVLEYLQDIGLEYLTDGRPGFKLLFRFDSSANPFFTNDILCKTYFYQKELGYSGDFIYDHAEGCEISWKDNAHNVTVDLEMRKQRNKTTKQVRTIEKITPIESFFNFFDPPKIQNEDQDEELEEDLEERLALDYSIGEQLKDKLIPRAVDWFTGAALEFEFEEDEEEADEDEDEEEDDDHGLEDDDGESAEEQDDFAGRPEQAPECKQS
Consider B4, for which, in the data set “native MS”, the “stoichiometry N” value is 2 and 4 and 6.
